This note sets out measurements from publication PMC12636710.

For test [1], the target named is prion protein (PrP) (mouse (endogenous in brain of APOE-TR mice)) (UniProt P04925). In words: velocity sedimentation in a sucrose gradient.
Test [2] concerns the target human apolipoprotein E, apoE4 isoform (ε4 allele) (human) (UniProt P02649). The test can be described thus: co-IP.

Sequence of human apolipoprotein E, apoE4 isoform (ε4 allele) (human) (P02649 19-317): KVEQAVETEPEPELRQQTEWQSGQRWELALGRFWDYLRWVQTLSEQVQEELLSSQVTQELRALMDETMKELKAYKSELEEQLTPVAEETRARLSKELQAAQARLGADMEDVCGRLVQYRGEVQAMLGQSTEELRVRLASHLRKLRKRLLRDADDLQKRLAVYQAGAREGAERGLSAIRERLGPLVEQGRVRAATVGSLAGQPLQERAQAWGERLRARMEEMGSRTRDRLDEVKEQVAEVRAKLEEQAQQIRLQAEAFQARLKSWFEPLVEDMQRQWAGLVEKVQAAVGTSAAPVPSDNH
Sequence of prion protein (PrP) (P04925 23-230): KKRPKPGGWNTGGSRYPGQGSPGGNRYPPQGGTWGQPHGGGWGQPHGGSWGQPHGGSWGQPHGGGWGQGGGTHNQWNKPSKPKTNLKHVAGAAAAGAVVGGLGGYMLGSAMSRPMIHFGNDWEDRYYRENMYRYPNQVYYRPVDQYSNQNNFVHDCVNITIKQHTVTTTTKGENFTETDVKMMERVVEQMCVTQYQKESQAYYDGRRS
Sequence of prion protein (PrP), P04925 23-230 (natural protein; other documents disagree on this pair) (P04925 23-230): as above

“prion protein (PrP), P04925 23-230 (natural protein; other documents disagree on this pair)” gave a stoichiometry N in test [1] of more than 10. In the case of “prion protein (PrP) (from UniProt P04925 23-230) (natural protein)”, in test [2], the fold PrP/apoE OD ratio in the immunoprecipitate against ε2/ε2 22L mice was 2.8 fold and the fold PrP/apoE OD ratio in the immunoprecipitate against ε3/ε3 22L mice came out at 1.7 fold.

Usually stoichiometry N stands for a count of units in the complex or per binding partner.
